The target of this assay is GLP-1R-GFP stably expressed on HEK293 cells.

For “GLP-1 (L-GLP-1, [Ala8]GLP-1-Ahx-Cys) (peptide)”, the EC50 of peptide triggered cyclic AMP (cAMP) accumulation was 5 nM.

The record behind these values is patent US20120100070A1.
